Assay results: the nanobody polyreactivity screen of Harvey et al. (2022)

Assay: yeast display, Sf9 membrane polyspecificity reagent, FACS + sequencing; frameworks hold sequencing errors
Procedure, shortened: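 Using colony PCR, genes from sorted yeast display clones were amplified, then sequenced on MiSeq at 2 × 250 and filtered by CDR length. The clones had been stained with 10% biotinylated, detergent-solubilized Sf9 membrane reagent for 1 hour at 4 °C and sorted by FACS into low and high (top ~1%) gates on anti-HA and streptavidin fluorescence. Polyreactivity labels come from the gate of origin.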

Row | Sequence | polyreactivity (PSR sort gate)
1 | QVQLVESGGCLVQAGGSLRLSCAASGSIFRYYAMGWNRQAPGKERELVAAISSSGDNTYYADSVKGRFTISRDNAKNTVYLQMNSLKPEDTAVYYCAVRGERRYIYDYWGQGSQVTVSS | high polyreactivity
2 | QVQLVESGGGLVQAGGRLRLSCAASGSIFGVYDMGWYRQAPGKERELVAVINSNGGSTYYADSVKGRFTISRDNAKNTVYLQMNSLKPEDTAVYYCAAERATVKFGYWGQGTQVTVSS | low polyreactivity
3 | QVQLVESGGGLVQAGGSLRLSCAASGRIFGWYAMGWSRQAPGKERELGAAITTADSTYYADSVKGRFTISRDNAKNTVYLQMNSLKPEDTAVYYCAADAYWEYDYWGQGTQVTVSS | low polyreactivity
4 | QVHHVESGGGLVQAGGSLRLSCAASGFIFTYNAMGWYRQAPGKERELVAAIRSGTNTSYADSVKGRFTISRDNAKNTVYLQMNSLKPEDTAVYYCNREVPEYQGFITPDGYWGQGTQVTVSS | low polyreactivity
5 | QVQLVESGGGLVQAGGSLRLSCAASGSIFESNAMGWYRQAPGKEREFVAAIDQNDGSTNYADSVKGRFTISRDNAKNTVYLQMNSLKPEDTAVYYCAKYWGYLGYYEFDYWGQGTQVTVSS | low polyreactivity
6 | QVQLVESGGGLVQAGGSLRLSCAASGSIFYRNAMGWYRQAPGKERELVAAISSDGSTNYADSVKGRFTISRDNAKNTVYLQMNSLKPEDTAVYFCAAPWTQILDYWGQGTQVTVSS | low polyreactivity
7 | QVQHVESGGGLVQAGGSLRLSCAASGIISYKNVMGWYRQAPGKERELVAAISGRGGSTYYADSVKGRFTISRDNAKNTVYLQMNSLKPEDTAVYYCAKYPGISGYNYWGQGTQVTVSS | high polyreactivity
8 | QVQLVESGGGLVQAGGSLRLSCAASGSTIRYYAMGWYRQAPGKERELVAAITKSGGSTYYADSVKGRFTISRDNAKKTVYLQMNSLKPEDTAVYYCAAVRRWYYPALSEHDYWGQGTQVTVSS | low polyreactivity
9 | QVQLVESGGGLVQAGGSLRLSCAASGIILRGYVIGWYRQAPGQERELVAAISTSGGRTYYADSVKGRFTISRDNAKNTVYLQMNSLKQEDTAVYYCAAVSSRLWLYDYWGQGTQVTVSS | high polyreactivity
10 | QVQLVESGGGLVQAGGSLRLSCAASGSIFVWNAMGWYRQAPGKERELVAAITNICGRTYYADSVKGRFTISRDNAKNTVYLQMNSLKPEDTAVYYCNTDRVSRLGWSTTSDSWGQGTQVTVSS | high polyreactivity
11 | QVQLVESGGGLVQAGGSLRLSCAASGSTFYGYGMGWYREAPGKERELVAAITGSGDTTYYADSVKGRFTISRDNAKNTVYLQMNSLKREDTAVYYCNAGWHAEYDYWGQGTQVTVSS | low polyreactivity
12 | QVQLVESGGGLVQAGGSLRLSCAASGSIFGVYAMGWYRQAPGKEREFVAAITKRGGSTYYADSVKGRFTISRDNAKNTVYLQMNSLKPEDTAVYYCAARYGRYISSRYGSWGQGTQVTVSS | high polyreactivity
13 | QVQLVESWGGLVQAGGSLRLSCAASGRIINQYAMGWYRQAPGKERELVAAITLNGGSTYYADSVKGRFTISRDNAKNTVYLQMNSLKPEDTAVYYCNNRYTHYSRKGVSYPKYDYWGQGNQVTVSS | high polyreactivity
14 | QVQLVESGGGLVQAGGSLRLSCAASGSTFTKYAMGWYRQAPGKERELVAAISRSGGGTYYADSVKGRFTISRDNAKNTVYLQMNILKPEDTAVYYCNAALFRGAQFDYWGQGTQVTVSS | high polyreactivity
15 | QVQLVESGGGLDQAGGSLRLSCAASGRTFRYYAMGWYRQAPWKESDLVATITGSGGSTYYADSVKGRFTISRDNSKNTVYLQMYSLKPEDTAVYYCNARKVRYPYRWYDYWGQGTQVTVSS | high polyreactivity
16 | QDPLVESGGLLVQAGGSLRLSCAASGFTFSRYAMGWYRQAPGKERELVAVIDNSGGTTYYADSVKGRFTISRDNAKNTVYLQMNSLKPEDTAVYYCAAKRIPRYYSASDYWGQGTQVTVSS | low polyreactivity
17 | QVQLQESGGGLVQAGGTITLGYDMGWYRQAPGKEREFVAGIDTGAITYYADSVKGRFTNSRDNAKNTVYLQMNSLKPEDTAVYYCAAILTHTYAHSYWGQGTQVTVSS | high polyreactivity
18 | QVQLVESGGGLVQAVGSLRLSCAASGRTFSEYAMGWYRQAPGKERELVAAITGTGGSTYYADSVKGRFTISRDNAKNTVYLQMNSLKPEDTAVYFCAAEYYRYYFLSVSTDDYWGQGTQVTVSS | high polyreactivity
19 | QVQLVESAGGLVQAGGSLRLSCASSGSTLPYNAMGWYRQAPGKESELVAAISKSGGRTYYADSVKGRFTISRDNAKNSVYLQMNSLKPEDTAVYYCNAGPYLGGGGSSRYLWGQGTQVTVSS | high polyreactivity
20 | QVQLVESAGGLVQAGGSLRLSCAASGITFTYYAMGWYRQAPGKERELVATISYGGGITYYADSVKGRFTISRDNAKNTVYLQMNSLKPEDTAVYYCNADGATVWSLEYWGQGTQVTVSS | low polyreactivity
21 | QVQLVESGGGLVQAGGSLRLSCAASGRIFGYYAMGWYRQAPGKERELVAAISSRGSRTYYADSVKGRFTISRDNAKNTVYLQMNSLKPVDTAVYYCATYDYWGQGTQVTVSS | high polyreactivity
22 | QVQLVESGGGLVQAGRSLRLSCAASGSTFRQNAMGWYRQAPGKERELVAGITFSSGSTYYADSVKGRFTISRDIAKNTLYLQMNSLKPEDTAVYYCAVRNASKNRKYYYWGQGTQVTVSS | high polyreactivity

Row | Sequence | polyreactivity (PSR sort gate)
23 | QVQLVESGGGLVQAGGSLRLSCAASGSTFVGNAMGWYRQAPGKERELVAAISRGGGRTYYADSVKGRFTISRDNAKNTVYLQMNSLKPEDTAVYYCNADVYHRAWHLDYWGQGTQVTVSS | high polyreactivity
24 | QVHLVESGGGLVQAGGSLRLSCAASGSIFPRNAMGWYRQAPGKERELVAAISSGGGRTYYADSVKGRFTISRDNAKNTVYLQMNSLKPVDTAVYYCAREVWGYRWLYPVYILDYWGQGTQVTVSS | high polyreactivity
25 | QVQLVESGGGLVQAGGSLRLSCAASGLIFSVYAMGWYRQAPGKERELVAAISWSGSTYYADSVKGRFTISRDNAKNTVYLQMNSLKPEDTAVYYCAAEYDYDHFYWMDYWGQGTQVTVSS | high polyreactivity
26 | PVQLVESGGGLVQAGGSLRLSCAASGSTIPSYAMGWYRQAPGKERELVASITYSDGTTRYADSVKGRFTISRDNAKNTVYLQMNSLKPEDTAVYYCNAVYYREGMDYWGQGTQVTVSS | low polyreactivity
27 | QVQLVESGGVLVEAGGSLRLSCASSGRIFTYYSMGWYRQAPGKERELVAAISRSGRTYYADSVKGRFTISRDNAKNTVYLQMNSLKPEDSAVYFCAAEYYYSWFEYWGQGTQVTVSS | high polyreactivity
28 | QVQLVESGGGLVQAGGSLRLSCDASGSIFRGYAMGWYRQAPGKEREFVAAISKRSGSTYYADSVKGRFTISRDNAKNSVYLQMNSLKPEDTAVYYCAKERVAAAGGYWGQGTQVTVSS | high polyreactivity
29 | QVQLVESGGGLVQAGGSLRLSCAPSGRTFRYYAMGWYRQAPGKERELVATISKSGGSTYYADSVKGRFTISRDNAKNTVYLQMNSLKPEDTAVYYCAAPIYNGYASWQVYYWGQGTQVTVSS | high polyreactivity
30 | QVQLVESGGGLVQAGGSLRLSCADSGSIFVAYAMRWYRPAPGKERELVAAISSSGGTTYYADSVKGRFTISRDNAKNTVYLQMNSLKPEDTAVYYSAARDYKYYYWGQGTQVTVSS | high polyreactivity
31 | QVQLVESGGGLVQAGGSLRLSWAASGRTFKSNAMGWYRPAPGKERELVAAISWGGGSTYYADSVKGRFTISRDNAKNTVYLQMNSLKPEDTAVYYCARRDIYGSYGFYTGGVDYWGQGTQVTVSS | low polyreactivity
32 | QVQLVESGGGLVHAGGSLRLSCAASGSTFPRNDMGWYRQAPGKERELVAAISRGGSTNYADSVKGRFTISRDNAKNTVYLQMNSLKPEDTAVYYCAAQIFESAYGMDYWGQGTQVTVSS | low polyreactivity
33 | QVQLVESGGGLVQAGGSLRLSCAASGSTFGRYAMGWYRQAPGKERELVAAITTSGGRTRYADSVKGRFTISRDNAKNPVYLQMNSLKPEDTAVYYCAASGAQGPDYDYWGQGTQVTVSS | low polyreactivity
34 | QVQLEDSGGGLVQAGGSLRLICAASGSILNYKAMGWYRHAPGKERELVAGIRSSGGSTYYADSVKGRFTISRDNAKNTVYLKMNSLKPEDTAVYDWAKRTYWRRGWGFDFWGQGTQVTVSS | high polyreactivity
35 | QVQLVESGGGLVQAGGSLRLSCAASGNIFAYYAMGWYRQAPGKEREFVAAIRSSGVSTYYADSVKGRFTISRDNAKNTVYLQMNSLKPEDTAVYYCAADSITGGWLIVSPPFNYTYDYWGQGTQVTVSS | low polyreactivity
36 | QVQLVESGGGLVQAGGSLRLSCAAYGFTFSWYAMGWYRQAPGKERELVAAISSSGGSTYYADSVKGRFTISRDNAKNTVYLQMNSLKPEDTAVYYCNAYRSASVVVGYDYWGQGTQVTVSS | high polyreactivity
37 | QVQLVESGGGLVHAGGSLRLSCAASGITFEVYGMGWYRQSPGKERELVAAINSDGNTNYADSVKGRFTISRDNAKNTVYLEMNSVKPEDTAVYYCATVVNAQISRGESAVTGYYYWGQGTQVTVSS | high polyreactivity
38 | QVQLVESGGGLVQAGGSLRLSCAASGFTFYRNDMGWYRQAPGKEREFVAAITTSGGSTYYADSVKGRFTISRDNAKYTVYLQMNSLKPEDTAVYYCNAYGDGYWKTFGYWGQGTQVTVSS | high polyreactivity
39 | QVQLVESVGGLVQAGGSLSLSCAASGSTFKQYAMGWYRQAPGKERELVAAISSRGGSTHYADSVKGRFTISRDNAKYTVYLQMNSLKPEDTAVYYCARDTDPQYSRSSDYDYWGQGTQVTVSS | low polyreactivity
40 | QVQLVESGGGLVQAGGSLRLSCAASGNTIHWNFMGWYRQATGKERELVATITFSGSSTYYADSVKGRFTISRDNAKNTVYLQMNSLKPEDTAVYYCAKDFLGDGTSIEYGGSEYDYWGQGTQVTVSS | low polyreactivity
41 | QVQLVESGGGLVQAGGSLRLSCAASGRTFNPYVMGWYRQAPGKERELVARIRGSGTSTYYADSVKGRFTISRDNAKNTVYLHMNSLKPEDTAVYYCAAAQSKYSFYWGDYYYWGQGTQVTVSS | high polyreactivity
42 | QLQLVESGGGLVQAGGSLRLSCAASVFTLRGYAMGWYRQATCKERELVADISGGGSTDYADSVKVRFTISRDNAKNTVYLQMNSLKPEDTAVYYCAAYGYLWWEMDYWGQGTQVTVSS | high polyreactivity
43 | QDQLVESRGGLVQAGGSLRLSCAASGRTFYINAMGWYRQAPGKERELVAAISWGGGRTYYADSVKGRFTISRDNAKNTVYLQMNSLKPEDTAVYYCAAEVAYYKYDYWGQGTQVTVSS | high polyreactivity
